We go through 1 molecule from doi:10.1101/2020.09.14.294884 (bioRxiv, 2020).

Where no end group is shown, it is not given here.

This assay addresses T1, recombinant Psb28 (from pIVEXPsb28His) (T. elongatus, UniProt Q8DLJ8 2-116).
T1 sequence: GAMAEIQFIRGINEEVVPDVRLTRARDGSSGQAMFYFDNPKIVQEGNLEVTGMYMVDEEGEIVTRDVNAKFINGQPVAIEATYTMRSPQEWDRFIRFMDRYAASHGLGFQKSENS
The assay is described as follows: NMR titration.

One may read the Kd as a measure of binding affinity in units of concentration. The koff is a measure of how fast the partners let go of each other. As for Ac-SGIDPELSPEQVEWGFYQKV [carboxy-terminal peptide from residues 480-499 of CP47], the Kd came to 53.92 ± 0.41 µM and the koff was 10.1 ± 0.16 s⁻¹.
